Experimental data as given in publication PMC8269243.

Target: TYLCV coat protein (CP) in viruliferous whiteflies (tomato yellow leaf curl virus (TYLCV) isolate SH2)

Vitellogenin (Vg) of MEAM1 whitefly (Bta07851), endogenous (natural protein)
proportion of phase V midguts (TYLCV movement across the midgut, IFA) in Vg antibody-treated whiteflies after a 24-h AAP; control group 55%: 30% | reduction of the disease incidence rate of tomato plants in the Vg antibody treatment against the control, 15 days (27%) and 30 days (35%) posttransmission: 35%
